The values that follow come from US20110028688A1 (published 2011).

To fix the notation:
B1: human OX40L N166A in the N90D, N114D background, residues 51-183 (ligand)
chain: GSHMQVSHRYPRIQSIKVQFTEYKKEKGFILTSQKEDEIMKVQDNSVIINCDGFYLISLKGYFSQEVDISLHYQKDEEPLFQLKKVRSVNSLMVASLTYKDKVYLNVTTDNTSLDDFHVAGGELILIHQNPGEFCVL
notes: Properly assembled trimer by size exclusion chromatography
B2: human OX40L F180A in the N90D, N114D background, residues 51-183 (ligand)
chain: B1 chain with A120N, F134A
notes: as for B1
B3: human OX40L residues 51-183 N90D, N114D, D162A (ligand)
chain: B1 chain with D116A, A120N
notes: Single alanine mutant in the N90D, N114D background
B4: human OX40L residues 51-183 N90D, N114D, Q80A (ligand)
chain: B1 chain with Q34A, A120N
notes: as for B3
B5: human OX40L residues 51-183 N90D, N114D, F180A (ligand)
chain: B1 chain with A120N, F134A
notes: as for B3
B6: human OX40L residues 51-183 N90D, N114D, N166A (ligand)
chain: B1 chain
notes: as for B3
B7: human OX40L (hOX40L), wild type, residues 51-183 (ligand)
chain: B1 chain with D44N, D68N, A120N
notes: Homotrimer; also called WT; OX40 ligand
B8: human OX40L Q80A in the N90D, N114D background, residues 51-183 (ligand)
chain: B1 chain with Q34A, A120N
notes: as for B1
B9: human OX40L (hOX40L) N90D, N114D double glycosylation mutant, residues 51-183 (ligand)
chain: B1 chain with A120N
notes: Homotrimer; also called hOX40Ligand; hOX40L double glycosylation mutant
B10: human OX40L D162A in the N90D, N114D background, residues 51-183 (ligand)
chain: B1 chain with D116A, A120N
notes: as for B1
B11: human OX40L E123A in the N90D, N114D background, residues 51-183 (ligand)
chain: B1 chain with E77A, A120N
notes: as for B1
B12: human OX40L T144A in the N90D, N114D background, residues 51-183 (ligand)
chain: B1 chain with T98A, A120N
notes: as for B1

Where a chain is given by its changes, count along the chain named. In names and notes the source's numbering stands.

The first experiment deals with T1, human OX40 receptor (hOX40), residues 29-170 (human, UniProt P43489 29-170, biotinylated with biotin-NHS-LC in the competition ELISA (Table II); not biotinylated in the crystals (Tables 6 and 7)).
T1 construct: Monomeric soluble receptor fragment; also called hOX40Receptor; HOX40 receptor
T1 sequence: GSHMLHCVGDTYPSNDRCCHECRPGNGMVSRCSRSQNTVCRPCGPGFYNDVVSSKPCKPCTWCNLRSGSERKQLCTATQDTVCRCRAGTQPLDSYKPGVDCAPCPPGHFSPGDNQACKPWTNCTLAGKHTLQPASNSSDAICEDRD
Briefly: competition ELISA; mutant in solution with biotinylated hOX40, unbound receptor captured on mOX40L-coated plate (N.D.: no detectable competition).
As to B1, the binding result is “no binding”. With B2, the binding result is given as “no binding”.

For the next experiment, the target named is T2, human OX40 receptor (hOX40), residues 29-170 (human, UniProt P43489 29-170, in the competition ELISA only: biotinylated with a 4 fold molar excess of biotin-NHS-LC (sites not given)).
T2 construct: Secreted from High Five insect cells (baculovirus), His-tag cleaved; also called hOX40 receptor; monomeric hOX40
T2 sequence: T1 sequence
Briefly: competition ELISA, alanine mutant against the N90D, N114D reference.
Consider B3, for which the “fold change in IC50” value is not below 3 fold.

Regarding B4, the “fold change in IC50” value is not below 3 fold.

The next experiment deals with T2, human OX40 receptor (hOX40), residues …. Briefly: competition ELISA (biotinylated hOX40 pre-incubated with mutant, unbound receptor captured on mOX40L-coated plate). (In general: An ELISA detects its analyte on a solid surface through an enzyme-linked reagent.)
For the molecule B5, the binding result is given as “no binding”. Same read-out and setting: for B6 the value was “no binding”.

The target in another experiment is T1, human OX40 receptor (hOX40), residues …. In words: competition ELISA; hOX40L in solution with biotinylated hOX40, unbound receptor captured on plate-coated mOX40L (competitor).
A word on the IC50: it is the point on the concentration scale where inhibition reaches its midpoint. Higher therefore signals a need for much substance. Turning to B7, the IC50 turned out to be 139 nM. As for B8, the IC50 turned out to be 537 nM. Compared with the last molecule, the IC50 is about 3.9-fold higher. On the same count and under the same terms, for B9 the value was 62 nM; for B10, 425 nM. On the same count and under the same terms, for B11 the value was 186 nM. For the molecule B12, the IC50 stood at 139 nM.

A further experiment has the same target. Briefly: competition ELISA; relative to hOX40L N90D, N114D.
Take B7: the “Fold-change in IC50 (Mutant/N90D, N114D)” value stood at 2.2 fold. Turning to B8, the “Fold-change in IC50 (Mutant/N90D, N114D)” value was 8.6 fold. Turning to B10, the “Fold-change in IC50 (Mutant/N90D, N114D)” value came out at 6.9 fold. On to B11, for which the “Fold-change in IC50 (Mutant/N90D, N114D)” value was found to be 3 fold. B12: the “Fold-change in IC50 (Mutant/N90D, N114D)” value is 2.2 fold.
